B1: Modified Seq11 (modified zCUSB0136.8 antibody) (antibody, V domains shown)
VH: QVQLQESGPGLVKPSETLSLTCTVSGFSLTTYDIIWIRQSPGKGLEWLGVIWTGGDTTYNSAFMSRLTISKDTSKNQISLKMSSLTAADTAVYYCARDWAYWGQGTLVTVSS
VL: DIVLTQSPDSLAVSLGERATISCRASESVDNYGNSFIQWYQQKPGQPPKLLIYFASYLQSGVPDRFSGSGSGTDFTLTISSVQAEDVATYYCHQNNEDPFTFGGGTKLEIK
B2: Modified Seq7 (modified zCUSB0136.8 antibody) (antibody, V domains shown)
VH: QVQLQESGPGLVKPSETLSLTCTVSGFSLTTYDIIWIRQSPGKGLEWLGVIWTGGDTTYNSAFMSRLTISKDTSKNQISLKMSSLTAADTAVYYCARDWMYWGQGTLVTVSS
VL: DIVLTQSPDSLAVSLGERATISCRASESVDNYGNSFIQWYQQKPGQPPKLLIYFASYLQSGVPDRFSGSGSGTDFTLTISSVQAEDVATYYCHQNNEDPFTFGGGTKLEIK
B3: Modified Seq4 (modified zCUSB0136.8 antibody) (antibody, V domains shown)
VH: QVQLQESGPGLVKPSETLSLTCTVSGFSLTVYDIIWIRQSPGKGLEWLGVIWTGGDTTYNSAFMSRLTISKDTSKNQISLKMSSLTAADTAVYYCARDWAYWGQGTLVTVSS
VL: DIVLTQSPDSLAVSLGERATISCRASESVDNYGNSFIQWYQQKPGQPPKLLIYFASYLQSGVPDRFSGSGSGTDFTLTISSVQAEDVATYYCHQNNEDPFTFGGGTKLEIK
B4: Modified Seq10 (modified zCUSB0136.8 antibody) (antibody, V domains shown)
VH: QVQLQESGPGLVKPSETLSLTCTVSGFSLTTYDIIWIRQSPGKGLEWLGVIWTGGDTWYNSAFMSRLTISKDTSKNQISLKMSSLTAADTAVYYCARDWMYWGQGTLVTVSS
VL: DIVLTQSPDSLAVSLGERATISCRASESVDNWGNSFIQWYQQKPGQPPKLLIYFASHLQSGVPDRFSGSGSGTDFTLTISSVQAEDVATYYCHQNNEDPFTFGGGTKLEIK
B5: Modified Seq6 (modified zCUSB0136.8 antibody) (antibody, V domains shown)
VH: QVQLQESGPGLVKPSETLSLTCTVSGFSLTTYDIIWIRQSPGKGLEWLGVIWTGGDTTYNSAFMSRLTISKDTSKNQISLKMSSLTAADTAVYYCARDWIYWGQGTLVTVSS
VL: DIVLTQSPDSLAVSLGERATISCRASESVDNYGNSFIQWYQQKPGQPPKLLIYFASYLQSGVPDRFSGSGSGTDFTLTISSVQAEDVATYYCHQNNEDPFTFGGGTKLEIK
B6: Modified Seq2 (modified zCUSB0136.8 antibody) (antibody, V domains shown)
VH: QVQLQESGPGLVKPSETLSLTCTVSGFSLTVYDIIWIRQSPGKGLEWLGVIWTGGDTTYNSAFMSRLTISKDTSKNQISLKMSSLTAADTAVYYCARDWIYWGQGTLVTVSS
VL: DIVLTQSPDSLAVSLGERATISCRASESVDNYGNSFIQWYQQKPGQPPKLLIYFASYLQSGVPDRFSGSGSGTDFTLTISSVQAEDVATYYCHQNNEDPFTFGGGTKLEIK
B7: Modified Seq3 (modified zCUSB0136.8 antibody) (antibody, V domains shown)
VH: QVQLQESGPGLVKPSETLSLTCTVSGFSLTTYDIIWIRQSPGKGLEWLGVIWTGGDTTYNSAFMSRLTISKDTSKNQISLKMSSLTAADTAVYYCARDWIYWGQGTLVTVSS
VL: DIVLTQSPDSLAVSLGERATISCRASESVDNWGNSFIQWYQQKPGQPPKLLIYFASYLQSGVPDRFSGSGSGTDFTLTISSVQAEDVATYYCHQNNEDPFTFGGGTKLEIK
B8: Modified Seq9 (modified zCUSB0136.8 antibody) (antibody, V domains shown)
VH: QVQLQESGPGLVKPSETLSLTCTVSGFSLTTYDIIWIRQSPGKGLEWLGVIWTGGDTNYNSAFMSRLTISKDTSKNQISLKMSSLTAADTAVYYCARDWAYWGQGTLVTVSS
VL: DIVLTQSPDSLAVSLGERATISCRASESVDNYGNSFIQWYQQKPGQPPKLLIYFASYLQSGVPDRFSGSGSGTDFTLTISSVQAEDVATYYCHQNNEDPFTFGGGTKLEIK
B9: Modified Seq5 (modified zCUSB0136.8 antibody) (antibody, V domains shown)
VH: QVQLQESGPGLVKPSETLSLTCTVSGFSLTVYDIIWIRQSPGKGLEWLGVIWTGGDTTYNSAFMSRLTISKDTSKNQISLKMSSLTAADTAVYYCARDWMYWGQGTLVTVSS
VL: DIVLTQSPDSLAVSLGERATISCRASESVDNYGNSFIQWYQQKPGQPPKLLIYFASYLQSGVPDRFSGSGSGTDFTLTISSVQAEDVATYYCHQNNEDPFTFGGGTKLEIK
B10: Modified Seq14 (modified zCUSB0136.8 antibody) (antibody, V domains shown)
VH: QVQLQESGPGLVKPSETLSLTCTVSGFSLTTYDIIWIRQSPGKGLEWLGVIWTGGDTTYNSAFMSRLTISKDTSKNQISLKMSSLTAADTAVYYCARDWIYWGQGTLVTVSS
VL: DIVLTQSPDSLAVSLGERATISCRASESVDNWGNSFIQWYQQKPGQPPKLLIYFASNLQSGVPDRFSGSGSGTDFTLTISSVQAEDVATYYCHQNNEDPFTFGGGTKLEIK
B11: Modified Seq12 (modified zCUSB0136.8 antibody) (antibody, V domains shown)
VH: QVQLQESGPGLVKPSETLSLTCTVSGFSLTVYDIIWIRQSPGKGLEWLGVIWTGGDTTYNSAFMSRLTISKDTSKNQISLKMSSLTAADTAVYYCARDWIYWGQGTLVTVSS
VL: DIVLTQSPDSLAVSLGERATISCRASESVDNWGNSFIQWYQQKPGQPPKLLIYFASHLQSGVPDRFSGSGSGTDFTLTISSVQAEDVATYYCHQNNEDPFTFGGGTKLEIK
B12: Modified Seq1 (modified zCUSB0136.8 antibody) (antibody, V domains shown)
VH: QVQLQESGPGLVKPSETLSLTCTVSGFSLTTYDIIWIRQSPGKGLEWLGVIWTGGDTWYNSAFMSRLTISKDTSKNQISLKMSSLTAADTAVYYCARDWAYWGQGTLVTVSS
VL: DIVLTQSPDSLAVSLGERATISCRASESVDNWGNSFIQWYQQKPGQPPKLLIYFASYLQSGVPDRFSGSGSGTDFTLTISSVQAEDVATYYCHQNNEDPFTFGGGTKLEIK
B13: Modified Seq8 (modified zCUSB0136.8 antibody) (antibody, V domains shown)
VH: QVQLQESGPGLVKPSETLSLTCTVSGFSLTTYDIIWIRQSPGKGLEWLGVIWTGGDTWYNSAFMSRLTISKDTSKNQISLKMSSLTAADTAVYYCARDWIYWGQGTLVTVSS
VL: DIVLTQSPDSLAVSLGERATISCRASESVDNYGNSFIQWYQQKPGQPPKLLIYFASYLQSGVPDRFSGSGSGTDFTLTISSVQAEDVATYYCHQNNEDPFTFGGGTKLEIK

The term Kd denotes the concentration at which binding is half-saturated. Broadly, the koff is the rate constant with which the complex falls apart. Usually kon stands for the rate constant with which the complex forms.

T1 sequence (Q15116 25-167 limits assumed): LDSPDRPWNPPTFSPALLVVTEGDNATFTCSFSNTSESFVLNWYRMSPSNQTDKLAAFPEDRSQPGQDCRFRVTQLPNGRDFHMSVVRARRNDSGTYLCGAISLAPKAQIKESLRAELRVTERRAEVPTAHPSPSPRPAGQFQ

The assay concerns the target T1, recombinant human PD-1 His-tag protein (R&D Systems) (human, UniProt Q15116 25-167).
T1 construct: Bought reagent; Used for the ELISA (coated) and for SPR (analyte); also called PD-1 protein; human PD-1 protein; not shown: His-tag
Kind of assay: binding kinetics (method not described at the table; presumably SPR as in Example 8).
B1: the Kd turned out to be 0.0206 nM, the off-rate constant (koff) is 7.57e-05 s⁻¹ and the kon was 3.67e+06 M⁻¹ s⁻¹.

Take B2: the Kd was determined as 0.0142 nM, the off-rate (koff) amounted to 5.48e-05 s⁻¹ and the kon came out at 3.84e+06 M⁻¹ s⁻¹.

As for B3, the Kd was found to be 0.00944 nM, the koff came to 3.92e-05 s⁻¹ and the kon turned out to be 4.15e+06 M⁻¹ s⁻¹.

In the case of B4, the Kd was 0.0174 nM, the koff worked out at 6.74e-05 s⁻¹ and the kon was found to be 3.87e+06 M⁻¹ s⁻¹.

Consider B5, for which the Kd amounted to 0.0136 nM, the koff stood at 5.45e-05 s⁻¹ and the kon turned out to be 4e+06 M⁻¹ s⁻¹.

As for B6, the dissociation constant Kd came out at 0.00571 nM, the koff was 2.53e-05 s⁻¹ and the association rate constant (kon) was 4.44e+06 M⁻¹ s⁻¹.

As for B7, the equilibrium dissociation constant (Kd) came to 0.00931 nM, the koff came to 5.28e-05 s⁻¹ and the kon was found to be 5.67e+06 M⁻¹ s⁻¹.

Take B8: the Kd came to 0.0158 nM, the koff stood at 5.98e-05 s⁻¹ and the kon amounted to 3.78e+06 M⁻¹ s⁻¹.

Regarding B9, the Kd was found to be 0.0108 nM, the koff is 4.36e-05 s⁻¹ and the kon was 4.06e+06 M⁻¹ s⁻¹.

Take B10: the Kd amounted to 0.0244 nM, the koff came to 6.5e-05 s⁻¹ and the kon was 2.67e+06 M⁻¹ s⁻¹.

Turning to B11, the equilibrium dissociation constant (Kd) amounted to 0.0225 nM, the dissociation rate constant (koff) came out at 6.81e-05 s⁻¹ and the kon amounted to 3.03e+06 M⁻¹ s⁻¹.

On to B12, for which the Kd is 0.00539 nM, the off-rate constant (koff) stood at 2.81e-05 s⁻¹ and the kon turned out to be 5.21e+06 M⁻¹ s⁻¹.

Turning to B13, the equilibrium dissociation constant (Kd) stood at 0.0147 nM, the koff turned out to be 6.09e-05 s⁻¹ and the kon turned out to be 4.13e+06 M⁻¹ s⁻¹.

(Values after patent US20260098092A1 (CHULALONGKORN UNIVERSITY, published 2026).)
